Measurements taken from patent publication US20060110492A1, “Preparation and food product comprising an active phytase” (priority 2003, published 2006).

Assays:
[1] = Mineral partitioning in ground Cruesli with added FePA and/or phytase (AES-ICP); type: biochemical; conditions: phytase 115 FTU/g
Description: 0.1 g of this preparation was added to 20 g ground Cruesli™ (Quaker Foods & Beverages). […] […] The suspension was incubated at 37° C. with constant stirring for 4 h, and subsequently centrifuged for 20 minutes at 16000 rpm and 4° C. After centrifugation, the sediment and the supernatant fraction were separated, weighed and analyzed by AES-ICP to determine their phosphorus, calcium, magnesium, zinc and iron content. Control suspensions without phytase activity (but with the FePA), and without both FePA and phytase underwent the same procedure.

[2] = Fe retained in sedimented fraction of suspended salt (AES/ICP); type: physicochemical
Description: The prepared FePA as described in Example 3 was suspended either at pH 2 or at pH 5,5 in a concentration of 35.8 g per liter. After sedimentation, the supernatant fraction of both suspensions was analysed by AES/ICP.
Subsequently, the suspension of pH=2 was centrifuged 10 minutes at 6000 rpm at room temperature. The pellet was dissolved in 15 g concentrated […] and the solution was analyzed by AES/ICP.
This procedure was repeated with iron phosphate. This salt was prepared in the same way as the preparation of the essential cation phytates: the cation was dissolved as its sulfate, and subsequently precipitated with a basic solution of sodium phosphate. The precipitate was collected and washed.

[3] = Mineral partitioning in ground Cruesli fractions with added phytase activity (AES-ICP); type: biochemical
Description: Various phytase preparations are commercially available. We have used the liquid formulation NATUPHOS™ 5000 L (DSM, Delft, The Netherlands). Again we used ground Cruesli™ (Quaker Foods & Beverages) as model phytate-containing foodstuff. About 20 grams ground Cruesli™ was suspended in two separate lots of 40 g acetate buffer (0.25 M, pH 5.5, 37° C.). To one of the lots, 1.2 g of the phytase preparation was added, to achieve a final activity of 100 FTU/g. The suspensions were incubated at 37° C. with constant stirring for 1,5 h, and subsequently centrifuged for 20 minutes at 16000 rpm and 4° C. After centrifugation the sediment and the supernatant fraction were separated, weighed and analyzed by AES-ICP to determine their phosphorus, calcium, magnesium and zinc content.
The procedure for this example was the same as for Example 6, but a lower final phytase activity in the incubation was used: 1 FTU/g, instead of 100. The incubation time was lowered to 1 hour.
The procedure for this example was the same as for Example 7, but at a lower pH value and a longer incubation time. This was done to simulate the conditions existant in the stomach. We looked specifically at iron, because iron salts are believed to be particularly poorly soluble at higher pH values, making breakdown in the stomach an attractive option. Iron concentrations were determined by AES-ICP.

[4] = characteristic stomach pH-values; cited from earlier work
[5] = Phytase activity on different substrates (method of Engelen et al.); type: biochemical; conditions: 37° C.; for Activity: incubation 60 minutes
Description: The activity of Aspergillus niger phytase (NATUPHOS™) was tested against NaPA and CaPA. The influence of the metal in the phytate source on the phytase activity (37° C. using an incubation time of 60 minutes) was investigated. The rate of phytate hydrolysis was determined using the analytical method described by Engelen et al., J. AOAC Int. 77:760-764 (1994).

[6] = incubation pH 2, 37° C., 4 h, where added: Fe-phytate 450 mg/kg
[7] = incubation pH <1, where added: Fe-phytate 450 mg/kg
[8] = pH 2, 37° C., 2 h, phytase 1 FTU/g
[9] = pH 5.5, 37° C., 1 h, phytase 1 FTU/g
[10] = pH 5.5, 37° C., 1.5 h, phytase 100 FTU/g
[11] = incubation pH 5.5, where added: Fe-phytate 450 mg/kg

Iron-phytate [Fe-phytate]
Percentage of mineral in supernatant fraction, Iron [1, 6]: 10% | Percentage of mineral in supernatant fraction, Phosphorus [1, 6]: 9.6% | Percentage of mineral in supernatant fraction, Iron [1, 7]: 23% | Percentage of mineral in supernatant fraction, Phosphorus [1, 7]: 68% | Fe retained in the sedimented fraction ([2]; suspended at pH 2): more than 90% | Fe retained in the sedimented fraction ([2]; suspended at pH 5.5): more than 90%

iron phosphate [reference compound]
Fe retained in the sedimented fraction ([2]; suspended at pH 2): less than 10% | Fe retained in the sedimented fraction ([2]; suspended at pH 5.5): more than 90%

B1: phytase: Phytase from A. niger commercialized under the trade name NATUPHOS; liquid (5000 L) and granulated (5000 G) formulations, 5000 FTU/g (protein, UniProt P34752 24-467, looked up)
Phytase A: ASRNQSSCDTVDQGYQCFSETSHLWGQYAPFFSLANESVISPEVPAGCRVTFAQVLSRHGARYPTDSKGKKYSALIEEIQQNATTFDGKYAFLKTYNYSLGADDLTPFGEQELVNSGIKFYQRYESLTRNIVPFIRSSGSSRVIASGKKFIEGFQSTKLKDPRAQPGQSSPKIDVVISEASSSNNTLDPGTCTVFEDSELADTVEANFTATFVPSIRQRLENDLSGVTLTDTEVTYLMDMCSFDTISTSTVDTKLSPFCDLFTHDEWINYDYLQSLKKYYGHGAGNPLGPTQGVGYANELIARLTHSPVHDDTSSNHTLDSSPATFPLNSTLYADFSHDNGIISILFALGLYNGTKPLSTTTVENITQTDGFSSAWTVPFASRLYVEMMQCQAEQEPLVRVLVNDRVVPLHGCPVDALGRCTRDSFVRGLSFARSGGDWAECFA
% of mineral in supernatant fraction, Iron [3, 8]: 14% | % of mineral in supernatant fraction, Phosphorus [3, 8]: 33% | % of mineral in supernatant fraction, Calcium [3, 9]: 30% | % of mineral in supernatant fraction, Magnesium [3, 9]: 36% | % of mineral in supernatant fraction, Phosphorus [3, 9]: 30% | % of mineral in supernatant fraction, Zinc [3, 9]: 22% | % of mineral in supernatant fraction, Calcium [3, 10]: 40% | % of mineral in supernatant fraction, Magnesium [3, 10]: 49% | % of mineral in supernatant fraction, Phosphorus [3, 10]: 42% | % of mineral in supernatant fraction, Zinc [3, 10]: 19% | Percentage of mineral in supernatant fraction, Iron [1, 11]: 6% | Percentage of mineral in supernatant fraction, Phosphorus [1, 11]: 45% | residual activity, % of optimal activity [4]: about 50% | activity of phytase on sodium and on calcium phytate compared ([5]; 60 minutes): equivalent | Activity ([5]; substrate 4.6 mM calcium phytate): 3.12 * 10^5 FTU/g | Activity ([5]; substrate 5.1 mM calcium phytate): 3.07 * 10^5 FTU/g | Activity ([5]; substrate 5.1 mM sodium phytate): 3.06 * 10^5 FTU/g | Activity ([5]; substrate 5.6 mM calcium phytate): 3.10 * 10^5 FTU/g
